Experiment [1] deals with Cry1Aa toxin-binding region of Bombyx mori cadherin-like receptor BtR175 (BtR175-TBR) (Bombyx mori) (UniProt Q9XY09). The experiment can be described thus: SPR; BtR175-TBR immobilized on a CM5 chip by amine coupling (Biacore J); four concentrations of toxin in PBST (0.005% Tween, pH 7.4) for 120 sec, dissociation 240 sec; 1:1 Langmuir model, global fitting; KD = kd/ka. (SPR reads the build-up and loss of mass on a sensor chip optically.)

Experiment [2] concerns the target wild-type Cry1Aa toxin (trypsin-activated) (B. thuringiensis subsp. kurstaki strain …, UniProt P0A366 1-1176, Trypsin-activated toxin core, unmutated wild type. Limits are not printed: the N-terminus at Ile29 follows the conventional trypsin cut after Arg28 (and the IETGYTP start in the phage-display primer),). Described as above. To be noted: both partners purified.

Usually Kd stands for the constant that tells how readily two partners part at equilibrium. As usually defined, the koff is a measure of how fast the partners let go of each other. Take “Cry1Aa domain II loop 2 mutant toxin 371PHRP374 (trypsin-activated) (from UniProt P0A366 1-1176) (ligand)”: in experiment [1], the Kd was 8.3 nM and the koff worked out at 0.00122 s⁻¹.
“Cry1Aa domain II loop 2 mutant toxin 371WGLA374 (trypsin-activated) (from UniProt P0A366 1-1176) (ligand)”: in experiment [1], the Kd was 1.56 nM and the koff was 0.00061 s⁻¹.
With “Cry1Aa domain II loop 2 mutant toxin 371WPHH374 (trypsin-activated) (from UniProt P0A366 1-1176) (ligand)”, in experiment [1], the Kd is 1.55 nM and the koff amounted to 0.00066 s⁻¹.
In experiment [1], “Cry1Aa domain II loop 2 mutant toxin 371WRPQ374 (trypsin-activated) (from UniProt P0A366 1-1176) (ligand)” had a Kd of 0.5 nM and a koff of 0.00102 s⁻¹.

B1: Cry1Aa toxin-binding region of Bombyx mori cadherin-like receptor BtR175 (BtR175-TBR) (domain or fragment)
chain: ELVIRPYNFHAPVFVFPKHGATLRLARERAVVNGLLATVDGEFLNRIVATDEDGLHAGQVAFEVVGDTEAVDYFHIVNDGENSGTLMLKQLFPEDIREFEVTIRATDGGTEPRPLSTDCTFSVVFVPIQGEPIFPTSTHTVAFIEKEAGLLERHELPRAEDRKNHLCSDDCHNIYYRIIDGNNDGHFGLDETTNVLFLVKELDRSVSETYTLTIAASNSPTGGIALTSTITITVNVREADPQPYFVRDLYTAGISTSDSINRELLILQATHSENAPIIYTIDWSTMVTDPTLASVRETAFILNPHTGVLTLNIQPTASMHGMFEFQVVATDPAGYSDRANVKIYLISTRNRVFFLFV
notes: The limits are stated for the GST fusion used in biopanning; also called GST-BtR175-TBR; source: prepared as described previously (Fujii et al. 2013); GST-BtR175-TBR from pGEX4t-3, harvested as inclusion bodies and solubilized
In experiment [2], B1 showed a dissociation constant (Kd) of 25 nM and a koff of 0.00267 s⁻¹.

The values are drawn from paper PMC4287183, “Affinity maturation of Cry1Aa toxin to the Bombyx mori cadherin-like receptor by directed evolution based on phage display and biopanning selections of domain II loop 2 mutant toxins” (MicrobiologyOpen, 2014).
